Laboratory results reported in US20210284734A1 (SYMPHOGEN A S, published 2021).

T1: human PD-1 ECD-Fc chimeric construct 21 (human, UniProt Q15116 21-170)
T1 construct: printed run together as I134VK135V; not shown: human IgG1 Fc, residues P101-K330
T1 chain: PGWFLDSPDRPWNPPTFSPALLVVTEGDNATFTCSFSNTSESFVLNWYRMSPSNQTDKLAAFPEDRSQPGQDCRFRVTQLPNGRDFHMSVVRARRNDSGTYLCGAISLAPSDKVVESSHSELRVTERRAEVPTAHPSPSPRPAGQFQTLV

T2: human PD-1 ECD-Fc chimeric construct 16 (human, UniProt Q15116 21-170)
T2 construct: not shown: human IgG1 Fc, residues P101-K330
T2 chain: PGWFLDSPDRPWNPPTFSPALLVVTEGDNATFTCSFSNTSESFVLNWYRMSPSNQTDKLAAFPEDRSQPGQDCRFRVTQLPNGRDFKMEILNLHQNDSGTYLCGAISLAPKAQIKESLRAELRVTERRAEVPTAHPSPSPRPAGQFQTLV

T3: human PD-1 ECD-Fc chimeric construct 22 (human, UniProt Q15116 21-170)
T3 construct: not shown: human IgG1 Fc, residues P101-K330
T3 chain: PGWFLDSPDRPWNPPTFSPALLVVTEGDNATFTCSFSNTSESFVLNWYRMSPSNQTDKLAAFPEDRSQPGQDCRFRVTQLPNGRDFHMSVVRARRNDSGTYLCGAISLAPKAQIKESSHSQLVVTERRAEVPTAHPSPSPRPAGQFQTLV

T4: human PD-1 ECD-Fc chimeric construct 17 (human, UniProt Q15116 21-170)
T4 construct: not shown: human IgG1 Fc, residues P101-K330
T4 chain: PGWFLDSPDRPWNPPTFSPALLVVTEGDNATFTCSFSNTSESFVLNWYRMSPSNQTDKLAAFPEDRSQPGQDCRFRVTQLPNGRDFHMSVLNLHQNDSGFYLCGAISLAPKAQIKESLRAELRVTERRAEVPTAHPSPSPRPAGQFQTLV

T5: human PD-1 ECD-Fc chimeric construct 12 (human, UniProt Q15116 21-170)
T5 construct: not shown: human IgG1 Fc, residues P101-K330
T5 chain: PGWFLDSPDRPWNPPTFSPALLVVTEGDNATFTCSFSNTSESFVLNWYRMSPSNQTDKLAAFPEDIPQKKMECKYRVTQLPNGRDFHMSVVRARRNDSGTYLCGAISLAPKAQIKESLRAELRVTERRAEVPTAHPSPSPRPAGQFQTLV

T6: human PD-1 ECD-Fc chimeric construct 5 (human, UniProt Q15116 21-170)
T6 construct: 'S56I' as printed; not shown: C-terminal human IgG Fc (printed as residues P101-K330)
T6 chain: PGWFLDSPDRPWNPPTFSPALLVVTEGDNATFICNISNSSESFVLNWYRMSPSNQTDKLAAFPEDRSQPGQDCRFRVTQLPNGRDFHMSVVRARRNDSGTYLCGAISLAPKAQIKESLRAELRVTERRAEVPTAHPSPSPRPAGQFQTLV

T7: human PD-1 ECD-Fc chimeric construct 18 (human, UniProt Q15116 21-170)
T7 construct: not shown: human IgG1 Fc, residues P101-K330
T7 chain: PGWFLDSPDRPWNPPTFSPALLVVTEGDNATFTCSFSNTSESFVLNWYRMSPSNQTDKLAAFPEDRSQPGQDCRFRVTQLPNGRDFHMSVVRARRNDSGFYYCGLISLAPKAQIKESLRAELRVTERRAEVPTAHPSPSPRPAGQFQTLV

T8: human PD-1 ECD-Fc chimeric construct 3 (human, UniProt Q15116 21-170)
T8 construct: not shown: human IgG1 Fc, residues P101-K330
T8 chain: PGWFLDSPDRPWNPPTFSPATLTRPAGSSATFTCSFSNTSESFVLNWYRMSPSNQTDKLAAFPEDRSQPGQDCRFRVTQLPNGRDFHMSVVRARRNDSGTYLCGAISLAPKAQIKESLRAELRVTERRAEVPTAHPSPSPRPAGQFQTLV

T9: human PD-1 ECD-Fc chimeric construct 6 (human, UniProt Q15116 21-170)
T9 construct: not shown: human IgG1 Fc, residues P101-K330
T9 chain: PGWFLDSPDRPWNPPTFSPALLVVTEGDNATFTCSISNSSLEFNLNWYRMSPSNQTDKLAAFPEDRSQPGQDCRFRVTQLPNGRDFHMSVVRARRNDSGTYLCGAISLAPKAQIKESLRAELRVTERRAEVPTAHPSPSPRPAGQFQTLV

T10: human PD-1 ECD-Fc chimeric construct 15 (human, UniProt Q15116 21-170)
T10 construct: not shown: human IgG1 Fc, residues P101-K330
T10 chain: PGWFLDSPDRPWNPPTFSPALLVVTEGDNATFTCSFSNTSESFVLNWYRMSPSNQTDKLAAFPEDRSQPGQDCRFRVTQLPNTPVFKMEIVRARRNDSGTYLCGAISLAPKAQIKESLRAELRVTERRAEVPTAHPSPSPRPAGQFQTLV

T11: human PD-1 ECD-Fc chimeric construct 8 (human, UniProt Q15116 21-170)
T11 construct: not shown: human IgG1 Fc, residues P101-K330
T11 chain: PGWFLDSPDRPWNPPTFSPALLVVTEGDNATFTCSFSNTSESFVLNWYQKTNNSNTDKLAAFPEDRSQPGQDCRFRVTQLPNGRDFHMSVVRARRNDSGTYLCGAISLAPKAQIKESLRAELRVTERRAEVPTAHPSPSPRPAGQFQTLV

T12: human PD-1 ECD-Fc chimeric construct 20 (human, UniProt Q15116 21-170)
T12 construct: printed run together as I134VK135V; not shown: human IgG1 Fc, residues P101-K330
T12 chain: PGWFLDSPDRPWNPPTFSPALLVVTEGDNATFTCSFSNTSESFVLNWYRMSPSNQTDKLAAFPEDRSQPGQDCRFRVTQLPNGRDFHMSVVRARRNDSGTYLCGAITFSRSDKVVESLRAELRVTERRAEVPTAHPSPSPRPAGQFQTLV


What was measured:
Experiment in all cases: SPR, Fab on captured PD-1-Fc
[1] = molecular target: T1, human PD-1 ECD-Fc chimeric construct 21
Method: (§1) The human PD-1 Fc fusion constructs were harvested after 9 days and supernatants were tested for binding affinity to anti-PD-1 Fabs by Surface Plasmon Resonance (SPR). Culture supernatants containing PD-1 fusion proteins were immobilized onto an G-a-hu-IgG Fc SensEye® (Ssens BV, The Netherlands) for 15 minutes using a Continuous Flow Microspotter (CFM, Wasatch Microfluidics, Salt Lake City, US). After spotting, the SensEye® was positioned in an IBIS MX96 biosensor and captured proteins were fixed to the surface using FixIT kit (Ssens BV, The Netherlands). […] Fab association was performed for 15 minutes and antigen dissociation was performed for 30 minutes. The recorded binding responses were fitted to a simple Langmuir 1:1 binding model with Scrubber 2 software for calculation of the on-rate (kₒₙ or ka), off-rate (koff or kd) and affinity (KD) constants.
(§2) The change in binding affinity of Fab antibodies binding to the mutated PD-1 constructs compared to wild-type were expressed as the ratio of KD mutant/KD wild-type (normalized binding affinity).

[2] = molecular target: T2, human PD-1 ECD-Fc chimeric construct 16
Method: as §1, §2

[3] = molecular target: T13, human PD-1 ECD-Fc chimeric construct 1 (human, UniProt Q15116 21-170)
T13 construct: not shown: human IgG1 Fc, residues P101-K330

[4] = molecular target: T3, human PD-1 ECD-Fc chimeric construct 22
Method: as §1, §2

[5] = molecular target: T4, human PD-1 ECD-Fc chimeric construct 17
Method: as §1, §2

[6] = molecular target: T5, human PD-1 ECD-Fc chimeric construct 12
Method: as §1, §2

[7] = molecular target: T6, human PD-1 ECD-Fc chimeric construct 5
Method: as §1, §2

[8] = molecular target: T7, human PD-1 ECD-Fc chimeric construct 18
Method: as §1, §2

[9] = molecular target: T8, human PD-1 ECD-Fc chimeric construct 3
Method: as §1, §2

[10] = molecular target: T9, human PD-1 ECD-Fc chimeric construct 6
Method: as §1, §2

[11] = molecular target: T10, human PD-1 ECD-Fc chimeric construct 15
Method: as §1, §2

[12] = molecular target: T11, human PD-1 ECD-Fc chimeric construct 8
Method: as §1, §2

[13] = molecular target: T12, human PD-1 ECD-Fc chimeric construct 20
Method: as §1, §2

| Binder | binding result [1] | KD mutant/KD wild-type [2] | KD mutant/KD wild-type [3] | KD mutant/KD wild-type [4] | KD mutant/KD wild-type [5] | KD mutant/KD wild-type [6] | KD mutant/KD wild-type [7] | KD mutant/KD wild-type [8] | KD mutant/KD wild-type [9] | KD mutant/KD wild-type [10] | KD mutant/KD wild-type [11] | binding result [12] | binding result [13] | KD mutant/KD wild-type [12] | KD mutant/KD wild-type [1] | KD mutant/KD wild-type [13] |
| --- | --- | --- | --- | --- | --- | --- | --- | --- | --- | --- | --- | --- | --- | --- | --- | --- |
| 12865.17150 Fab (Fab, V domains shown, monomeric Fab fragment) VH: EVQLLESGGGLVQPGGSLRLSCAASGFDFSDHGMQWVRQAPGKGLEYVGVIDTTGRYTYYAPAVKGRATISRDNSKNTLYLQMNSLRAEDTAVYYCAKTTCVGGYLCNTVGSIDAWGQGTLVTVSS VL: SYELTQDPAVSVALGQTVRITCSGGGSSSYYGWYQQKPGQAPVTVIYDDTNRPSGIPDRFSGSSSGNTASLTITGAQAEDEADYYCGGYEGSSHAGIFGSGTKVTVL | no binding (tested: 1 nM to 50 nM) | 0.4 ratio | 0.6 ratio | 1 ratio | 0.5 ratio | 0.6 ratio | 0.9 ratio | 4.6 ratio | 0.6 ratio | 0.2 ratio | 0.8 ratio | no binding (tested: 1 nM to 50 nM) | no binding (tested: 1 nM to 50 nM) | – | – | – |
| 12819.17149 Fab (Fab, V domains shown, monomeric Fab fragment) VH: EVQLLESGGGLVQPGGSLRLSCAASGFTFTRYDMVWVRQAPGKGLEWVAGIGDSNKMTRYAPAVKGRATISRDNSKNTLYLQMNSLRAEDTAVYYCAKGSCIACWDEAGRIDAWGQGTLVTVSS VL: SYELTQDPAVSVALGQTVRITCSGGGSYDGSSYYGWYQQKPGQAPVTVIYNNNNRPSDIPDRFSGSSSGNTASLTITGAQAEDEADYYCGSYDRPETNSDYVGMFGSGTKVTVL | no binding (tested: 1 nM to 50 nM) | 3.6 ratio | 1.2 ratio | 1.9 ratio | 0.2 ratio | 2.2 ratio | 1.2 ratio | 3.8 ratio | 1.3 ratio | 7.1 ratio | 1.3 ratio | – | no binding (tested: 1 nM to 50 nM) | 6.4 ratio | – | – |
| 13112.15380 Fab (Fab, V domains shown) VH: EVQLLESGGGLVQPGGSLRLSCAASGFTFSSYNMFWVRQAPGKGLEFVAEISGSNTGSRTWYAPAVKGRATISRDNSKNTLYLQMNSLRAEDTAVYYCAKSIYGGYCAGGYSCGVGLIDAWGQGTLVTVSS VL: SYELTQDPAVSVALGQTVRITCSGGSSDYYGWFQQKPGQAPVTVIYYNNKRPSDIPDRFSGSSSGNTASLTITGAQAEDEADYYCGNADSSVGVFGSGTKVTVL | – | 0.7 ratio | 0.4 ratio | 1 ratio | 0.7 ratio | 0.6 ratio | 2.5 ratio | 1.5 ratio | 0.7 ratio | 0.8 ratio | 0.9 ratio | – | – | 1.6 ratio | 0.5 ratio | 0.6 ratio |
